Measured values published in US20080146512A1 (published 2008).
One block for each molecule: values may come before it.

Experiments:
[1] = biological target: opioid growth factor receptor (OGFr) (human) (UniProt Q9NZT2); experiment: cell-based or functional assay
Cdk4 = biological target: T1, Cdk4 (human, UniProt P11802 2-303); experiment: Cdk4 immunoprecipitation from SCC-1 cell homogenates, Western blot with p16 antibodies
T1 construct: Endogenous protein immunoprecipitated from SCC-1 cell homogenates with a commercial polyclonal Cdk4 antibody; also called Cdk4 kinase
Text: Cell cycle progression depends on both positive and negative regulators.

Sequence of opioid growth factor receptor (OGFr) (human) (Q9NZT2 whole entry): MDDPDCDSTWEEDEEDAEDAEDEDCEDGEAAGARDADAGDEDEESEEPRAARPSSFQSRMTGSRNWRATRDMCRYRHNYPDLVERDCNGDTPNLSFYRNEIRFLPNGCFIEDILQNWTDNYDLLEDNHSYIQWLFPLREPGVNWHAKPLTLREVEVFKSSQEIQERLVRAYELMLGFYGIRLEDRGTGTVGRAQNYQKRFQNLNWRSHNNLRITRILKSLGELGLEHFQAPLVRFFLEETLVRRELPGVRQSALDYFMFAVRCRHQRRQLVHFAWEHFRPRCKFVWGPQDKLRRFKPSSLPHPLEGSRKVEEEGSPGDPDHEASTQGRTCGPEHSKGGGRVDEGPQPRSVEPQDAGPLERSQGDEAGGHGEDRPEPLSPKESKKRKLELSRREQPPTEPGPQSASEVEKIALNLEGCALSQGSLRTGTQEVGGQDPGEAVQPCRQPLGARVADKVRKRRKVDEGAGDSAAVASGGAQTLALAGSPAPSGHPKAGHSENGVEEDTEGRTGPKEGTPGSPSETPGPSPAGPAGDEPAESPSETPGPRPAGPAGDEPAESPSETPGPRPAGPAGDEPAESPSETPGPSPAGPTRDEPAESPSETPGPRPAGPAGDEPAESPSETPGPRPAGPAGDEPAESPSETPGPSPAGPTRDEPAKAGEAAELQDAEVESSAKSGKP
T1 sequence (P11802 2-303 limits assumed): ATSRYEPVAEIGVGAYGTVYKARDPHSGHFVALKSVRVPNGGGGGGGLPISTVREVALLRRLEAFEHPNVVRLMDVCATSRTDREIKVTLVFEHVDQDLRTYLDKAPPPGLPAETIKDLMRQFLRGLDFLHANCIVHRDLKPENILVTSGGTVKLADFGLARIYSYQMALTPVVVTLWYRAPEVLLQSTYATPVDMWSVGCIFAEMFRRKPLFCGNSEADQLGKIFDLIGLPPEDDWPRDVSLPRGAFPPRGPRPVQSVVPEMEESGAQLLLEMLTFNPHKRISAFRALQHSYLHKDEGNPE

growth of control siRNA-treated SCC-1 cells (cell number at 96 h) [1]: 46%
growth of wt SCC-1 cells (cell number at 96 h) [1]: 29%
Molecule: opioid growth factor (OGF), [Met5]-enkephalin (from UniProt P01210 100-104) (peptide)

binding result (Cdk4): binds
B1: p16 (INK4a) (other, human, UniProt P42771 1-156, looked up)
chain: MEPAAGSSMEPSADWLATAAARGRVEEVRALLEAGALPNAPNSYGRRPIQVMMMGSARVAELLLLHGAEPNCADPATLTRPVHDAAREGFLDTLVVLHRAGARLDVRDAWGRLPVDLAEELGHRDVARYLRAAAGGTRGSNHARIDAAEGPSDIPD
notes: Endogenous protein co-immunoprecipitated with Cdk4 from SCC-1 cell homogenates and detected with a commercial p16 antibody
